This note sets out measurements from publication PMC11721465 (Molecular Neurodegeneration, 2025).

Numbering of substitutions follows the chain as printed. Numbers in names are those of the source.

B1: TREM2 (19–134) D87N, biotinylated (domain or fragment, human, UniProt Q9NZC2 19-134, looked up)
chain: HNTTVFQGVAGQSLQVSCPYDSMKHWGRRKAWCRQLGEKGPCQRVVSTHNLWLLSFLRRWNGSTAITDNTLGGTLTITLRNLQPHDAGLYQCQSLHGSEADTLRKVLVEVLADPLD
modifications: biotin on the C-terminal BirA biotinylation sequence (enzymatic, BirA)
notes: AD risk variant that occurs in nature; source: Expi293F cells, purified, enzymatically biotinylated using BirA
B2: TREM2 (19–134) WT, biotinylated (domain or fragment, human, UniProt Q9NZC2 19-134, looked up)
chain: B1 chain with N69D
modifications: biotin on the C-terminal BirA biotinylation sequence (enzymatic, BirA)
notes: glycosylated (mammalian cells); also called TREM2 WT; source: Expi293F cells, purified, enzymatically biotinylated using BirA
B3: TREM2 (19–134) R62H, biotinylated (domain or fragment, human, UniProt Q9NZC2 19-134, looked up)
chain: B1 chain with R44H, N69D
modifications: biotin on the C-terminal BirA biotinylation sequence (enzymatic, BirA)
notes: as for B1
B4: TREM2 (19–134) R47H, biotinylated (domain or fragment, human, UniProt Q9NZC2 19-134, looked up)
chain: B1 chain with R29H, N69D
modifications: biotin on the C-terminal BirA biotinylation sequence (enzymatic, BirA)
notes: as for B1
B5: TREM2 (19–134) T96K, biotinylated (domain or fragment, human, UniProt Q9NZC2 19-134, looked up)
chain: B1 chain with N69D, T78K
modifications: biotin on the C-terminal BirA biotinylation sequence (enzymatic, BirA)
notes: as for B1
B6: TREM2 (19–134) L69D/L71D, biotinylated (domain or fragment, human, UniProt Q9NZC2 19-134, looked up)
chain: B1 chain with L51D, L53D, N69D
modifications: biotin on the C-terminal BirA biotinylation sequence (enzymatic, BirA)
notes: source: Expi293F cells, purified, enzymatically biotinylated using BirA
B7: TREM2 (19–134) T85D, biotinylated (domain or fragment, human, UniProt Q9NZC2 19-134, looked up)
chain: B1 chain with T67D, N69D
modifications: biotin on the C-terminal BirA biotinylation sequence (enzymatic, BirA)
notes: as for B6
B8: TREM2 (19–134) W78D, biotinylated (domain or fragment, human, UniProt Q9NZC2 19-134, looked up)
chain: B1 chain with W60D, N69D
modifications: biotin on the C-terminal BirA biotinylation sequence (enzymatic, BirA)
notes: as for B6
B9: TREM2 (19–134) W44D/L69D/L71D, biotinylated (domain or fragment, human, UniProt Q9NZC2 19-134, looked up)
chain: B1 chain with W26D, L51D, L53D, N69D
modifications: biotin on the C-terminal BirA biotinylation sequence (enzymatic, BirA)
notes: as for B6
B10: TREM2 (19–134) R46D, biotinylated (domain or fragment, human, UniProt Q9NZC2 19-134, looked up)
chain: B1 chain with R28D, N69D
modifications: biotin on the C-terminal BirA biotinylation sequence (enzymatic, BirA)
notes: as for B6
B11: TREM2 (19–134) R122E, biotinylated (domain or fragment, human, UniProt Q9NZC2 19-134, looked up)
chain: B1 chain with N69D, R104E
modifications: biotin on the C-terminal BirA biotinylation sequence (enzymatic, BirA)
notes: as for B6
B12: TREM2 (19–134) R77D, biotinylated (domain or fragment, human, UniProt Q9NZC2 19-134, looked up)
chain: B1 chain with R59D, N69D
modifications: biotin on the C-terminal BirA biotinylation sequence (enzymatic, BirA)
notes: as for B6
B13: TREM2 (19–134) R122D/K123D, biotinylated (domain or fragment, human, UniProt Q9NZC2 19-134, looked up)
chain: B1 chain with N69D, R104D, K105D
modifications: biotin on the C-terminal BirA biotinylation sequence (enzymatic, BirA)
notes: as for B6
B14: TREM2 (19–134) L75D, biotinylated (domain or fragment, human, UniProt Q9NZC2 19-134, looked up)
chain: B1 chain with L57D, N69D
modifications: biotin on the C-terminal BirA biotinylation sequence (enzymatic, BirA)
notes: as for B6

T3 sequence (Q13148 whole entry): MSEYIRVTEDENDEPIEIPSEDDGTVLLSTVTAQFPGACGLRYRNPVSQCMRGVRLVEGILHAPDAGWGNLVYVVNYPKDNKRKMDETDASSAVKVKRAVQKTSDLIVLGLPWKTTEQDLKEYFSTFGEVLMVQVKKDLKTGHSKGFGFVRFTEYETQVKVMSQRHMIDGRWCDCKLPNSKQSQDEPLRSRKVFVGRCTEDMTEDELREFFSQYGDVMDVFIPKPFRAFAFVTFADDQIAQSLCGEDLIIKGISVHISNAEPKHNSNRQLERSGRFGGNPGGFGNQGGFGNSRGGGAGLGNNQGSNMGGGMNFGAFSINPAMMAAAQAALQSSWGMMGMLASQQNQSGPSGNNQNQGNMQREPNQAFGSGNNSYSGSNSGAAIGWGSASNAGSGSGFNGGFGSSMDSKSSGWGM

In the first test the target is T1, apolipoprotein E3 (UniProt P02649 19-317).
T1 construct: also called apoE3
T1 sequence (P02649 19-317): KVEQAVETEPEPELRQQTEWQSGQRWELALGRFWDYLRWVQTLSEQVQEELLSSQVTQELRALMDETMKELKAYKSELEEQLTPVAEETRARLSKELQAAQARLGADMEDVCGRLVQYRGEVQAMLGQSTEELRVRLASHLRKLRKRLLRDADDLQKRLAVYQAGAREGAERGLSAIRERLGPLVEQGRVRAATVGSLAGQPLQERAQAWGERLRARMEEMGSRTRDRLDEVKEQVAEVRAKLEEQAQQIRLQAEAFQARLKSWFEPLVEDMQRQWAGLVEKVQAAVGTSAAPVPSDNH
Put plainly: BLI; biotinylated TREM2 WT or variant immobilised on streptavidin (SA) biosensors; apoE in solution (apoE4 0.012–50 µM); PBS with 0.1% BSA and 0.005% Tween-20; double-reference subtraction; steady-state analysis. Conditions: both partners purified. In general terms: In BLI a coated tip is dipped into the sample, and binding shifts an interference pattern.
The molecule B1 had a Kd of 0.079 µM.

Another test concerns the target T2, oligomeric amyloid beta 42 (UniProt P05067 672-713).
T2 construct: amyloid beta 42 (Aβ42), cut product of the amyloid precursor protein; oligomers of unstated size; also called oAβ42; Aβ42 oligomers; source: bought: Anaspec; oligomers made from HFIP/DMSO-treated peptide in PBS, 37 °C, 3 h
Nature of the test: not stated; KD of oAβ42 and TREM2 referred to Supplemental Fig. 9; method not given. Conditions: both partners purified.
B2 had a Kd of 0.042 µM.

Another test concerns the target T3, TDP-43, full length, soluble oligomers (human, UniProt Q13148 1-414).
T3 construct: TDP-43, human, full length; oligomers of unstated size; also called oligomeric TDP-43; TDP-43 oligomers; source: E coli, purified from insoluble inclusion bodies, solubilized in 6 M guanidine, oligomers made by 1:100 dilution
Put plainly: BLI; biotinylated TREM2 WT or variant immobilised on SA biosensors; TDP-43 oligomers 0.625–10 µM; PBS with 0.1% BSA and 0.005% Tween-20; biphasic curves, only qualitatively evaluated. Particulars: both partners purified.
Consider B2, for which the binding result is “binds”.
With B3, the binding result is “binds”.
For B4, the binding result is “binds”.
With B1, the binding result is “binds”.

A further test concerns the target T4, Human IL-34 (19–241) (human, UniProt Q6ZMJ4 19-241).
T4 construct: IL-34, human, residues 19-241; source: Expi293F cells, secreted, purified from the media using NiNTA chromatography
T4 sequence (looked up): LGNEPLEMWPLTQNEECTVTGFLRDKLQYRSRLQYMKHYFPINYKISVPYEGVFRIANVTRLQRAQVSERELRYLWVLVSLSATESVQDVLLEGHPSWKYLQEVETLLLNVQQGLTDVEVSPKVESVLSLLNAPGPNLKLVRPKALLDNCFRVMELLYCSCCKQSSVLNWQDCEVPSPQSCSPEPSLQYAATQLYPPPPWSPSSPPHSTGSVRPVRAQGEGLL
Nature of the test: BLI; biotinylated TREM2 WT or variant immobilised on SA biosensors; IL-34 62.5–1000 nM; PBS with 0.1% BSA and 0.005% Tween-20; 1:1 kinetic fits. Conditions: both partners purified.
As for B2, the Kd came out at 0.0165 ± 0.0002 µM.
Molecule B5 showed an equilibrium dissociation constant (Kd) of 0.0237 ± 0.0004 µM.
Turning to B3, the Kd stood at 0.075 µM.
In the case of B6, binding was put at a Kd of 0.0202 ± 0.0003 µM.
As to B7, the Kd was 0.0215 ± 0.0006 µM.
Still for that read-out and setting: in the case of B8 it was 0.0172 ± 0.0004 µM; in that of B9, 0.0258 ± 0.0003 µM; in that of B10, 0.018 ± 0.0003 µM.
On to B11, for which the Kd is 0.0294 ± 0.0004 µM.
Take B12: the Kd amounted to 0.114 ± 0.004 µM.
In turn, B13 returned a Kd of 0.0185 ± 0.0003 µM.
In turn, B14 displayed a Kd of 0.0366 ± 0.0009 µM.
Consider B4, for which binding was characterised by a dissociation constant (Kd) of 0.0798 ± 0.0024 µM.
For the molecule B1, the Kd was found to be 0.0284 ± 0.0005 µM.

The Kd is the free concentration of one partner at which half of the binding sites on the other are occupied at equilibrium, for simple one-to-one binding. The low end stands for tighter binding, the high end for weaker binding.
